# Measured values as given in US20130289246A1.
# Where two headings read alike, the source gives them in different places.
# B1: mAb 5I17 (antibody, V domains shown)
# VH: EVQLVESGGGVVQPGRSLRLSCAASGFSFSNYAMHWVRQAPGKGLEWVALISFDGSDKYYADSVKGRFTMSRDNSKNTLYLQMNSLRAEDTAVYYCARDEPYCGGDCFAFDVWGQGTMVTVS
# VL: DIQLTQSPSSLSASAGDRVSMTCRASQIISSSLNWYQQKPGKAPKLLIYAASNLQSGVPSRFSGSGSGTDFTLTISSLQPEDFATYYCQQSYSTPPELTFGGGTKVDIKR
# B2: mAb 3N6 (recombinant) (antibody, V domains shown)
# VH: QVQLQESGPGLVKPSETLSLTCSVSGGSINYYYWSWIRQPPGKGLECIGYISDTGRTYYNPSLRSRVTISVDTSKNQFSLNLTSMTAADTAVYYCARDPTGSRQKNAFDMWGQGTMVTVS
# VL: AIQMTQSPSSLSASVGDRVTITCRASQNIRSYLNWYQQKPGKAPNLLIYGTTSLESGVPSRFSGSGSGTDFTLTISSLQPEDFATYYCQQSYHTPQTFGQGTKVEIKR
# B3: mAb 6J24 (antibody, V domains shown)
# VH: EVQLVESGGGLVQPGRSLRLSCVGSGFNFDGYAMQWVRQVPGKGLEWVSGISWHSDSTGYADSVRGRFTISRDNAKNSLYLQMDSLRPEDTAFYYCGKSIGHVGGSYRHPIDYWGQGTLVTVS
# VL: DIQLTQSPSSLSASVGDRVTITCRASQGITDYLAWYQQKPGTIPKLLIYAASTLQSGVPSRFSGGGYGTDFTLTISSLQPEDVATYYCQKYNSAPLTFGGGTKVEIKR
# Assays:
# [1] = biological target: soluble 1999 H1 HA (seasonal 1999 H1N1) (Influenza A virus (H1N1, 1999)); test: ELISA, supernate; also: test concentration or dose not given here
# [2] = biological target: soluble 2004 H5 HA (Influenza A virus (H5N1, 2004)); test: ELISA, supernate; also: test concentration or dose not given here
# [3] = biological target: recombinant soluble 1957 H2 HA (A/Japan/305+/1957) (Influenza A virus A/Japan/305+/1957 (H2N2)); test: ELISA, supernate; also: test concentration or dose not given here
# [4] = biological target: recombinant soluble trimeric 2009 H1 HA (A/California/04/2009, wild type) (Influenza A virus A/California/04/2009 (H1N1)); test: ELISA, supernate; also: test concentration or dose not given here
# [5] = biological target: recombinant soluble trimeric 1918 H1 HA (A/South Carolina/1/1918, wild type) (Influenza A virus A/South Carolina/1/1918 (H1N1)) (UniProt Q9WFX3); test: ELISA, supernate
# [6] = biological target: recombinant soluble 1968 H3 HA (A/Aichi/2/1968) (Influenza A virus A/Aichi/2/1968 (H3N2)) (UniProt P03437); test: ELISA, supernate
# [7] = biological target: soluble 1999 H1 HA (seasonal 1999 H1N1) (Influenza A virus (H1N1, 1999)); test: ELISA, supernate; remark: listed apart in the source; also: test concentration or dose not given here
# [8] = biological target: soluble 2004 H5 HA (Influenza A virus (H5N1, 2004)); test: ELISA, supernate; remark: listed apart in the source; also: test concentration or dose not given here
# [9] = biological target: 1997 H6N1 HA (Influenza A virus (H6N1, 1997)); test: ELISA, supernate
# [10] = biological target: recombinant soluble 1957 H2 HA (A/Japan/305+/1957) (Influenza A virus A/Japan/305+/1957 (H2N2)); test: ELISA, supernate; remark: listed apart in the source; also: test concentration or dose not given here
# [11] = biological target: 1997 H9N2 HA (Influenza A virus (H9N2, 1997)); test: ELISA, supernate
# [12] = biological target: recombinant soluble trimeric 2009 H1 HA (A/California/04/2009, wild type) (Influenza A virus A/California/04/2009 (H1N1)); test: ELISA, supernate; remark: listed apart in the source; also: test concentration or dose not given here
# [13] = biological target: recombinant soluble trimeric 1918 H1 HA (A/South Carolina/1/1918, wild type) (Influenza A virus A/South Carolina/1/1918 (H1N1)) (UniProt Q9WFX3); test: ELISA, supernate; remark: listed apart in the source
# [14] = biological target: recombinant soluble 1968 H3 HA (A/Aichi/2/1968) (Influenza A virus A/Aichi/2/1968 (H3N2)) (UniProt P03437); test: ELISA, supernate; remark: listed apart in the source
# [15] = biological target: soluble 1999 H1 HA (seasonal 1999 H1N1) (Influenza A virus (H1N1, 1999)); test: ELISA, recombinant mAb
# [16] = biological target: soluble 2004 H5 HA (Influenza A virus (H5N1, 2004)); test: ELISA, recombinant mAb
# [17] = biological target: 1997 H6N1 HA (Influenza A virus (H6N1, 1997)); test: ELISA, recombinant mAb
# [18] = biological target: recombinant soluble 1957 H2 HA (A/Japan/305+/1957) (Influenza A virus A/Japan/305+/1957 (H2N2)); test: ELISA, recombinant mAb
# [19] = biological target: 1997 H9N2 HA (Influenza A virus (H9N2, 1997)); test: ELISA, recombinant mAb
# [20] = biological target: recombinant soluble trimeric 2009 H1 HA (A/California/04/2009, wild type) (Influenza A virus A/California/04/2009 (H1N1)); test: ELISA, recombinant mAb
# [21] = biological target: soluble 1999 H1 HA (seasonal 1999 H1N1) (Influenza A virus (H1N1, 1999)); test: ELISA, recombinant mAb; remark: listed apart in the source
# [22] = biological target: soluble 2004 H5 HA (Influenza A virus (H5N1, 2004)); test: ELISA, recombinant mAb; remark: listed apart in the source
# [23] = biological target: recombinant soluble 1957 H2 HA (A/Japan/305+/1957) (Influenza A virus A/Japan/305+/1957 (H2N2)); test: ELISA, recombinant mAb; remark: listed apart in the source
# [24] = biological target: recombinant soluble trimeric 2009 H1 HA (A/California/04/2009, wild type) (Influenza A virus A/California/04/2009 (H1N1)); test: ELISA, recombinant mAb; remark: listed apart in the source
Binder,OD [1] [OD],OD [2] [OD],OD [3] [OD],OD [4] [OD],OD [7] [OD],OD [8] [OD],OD [9] [OD],OD [10] [OD],OD [11] [OD],OD [12] [OD],other results
B1,1.93,1.55,0.85,0.668,1.19,1.17,0.11,1.38,1.98,0.566,OD [5]: 0.495 OD; OD [6]: 0.267 OD; OD [13]: 0.522 OD; OD [14]: 0.156 OD
B2,–,–,–,–,–,–,–,–,–,–,OD [15]: 1.49 OD; OD [16]: 3.07 OD; OD [17]: 0.23 OD; OD [18]: 0.801 OD; OD [19]: 0.084 OD; OD [20]: 2.69 OD; OD [21]: 0.909 OD; OD [22]: 2.03 OD; OD [23]: 0.57 OD; OD [24]: 1.03 OD
B3,0.183,0.379,0.219,0.981,0.083,0.182,0.163,0.097,0.075,0.102,–
